Source: WO2023190852A1 (dated 2023)

What was measured:
[1] = target: RBD derived from the Omicron strain (BA.4 and BA.5 strains) (SARS-CoV-2)
[2] = target: RBD derived from the Omicron strain (BA.1 strain; B.1.1.529) (SARS-CoV-2)
[3] = target: spike protein (RBD region) derived from the South African mutant strain (BA.4 strain) (SARS-CoV-2)

B1: natural human IgG antibody (HIG001697) (antibody, V domains shown)
VH: EVQLVESGGGLVQPGGSLRLSCTASEIIVTRNYMTWVRQAPGKGLEWVAQIYPGGTTYYADSVKGRFTISRHNSMNTMYLQMNSLRTEDTAVYYCARSRGGVDDFWGQGTLVTVSS
VL: DIQMTQSPSSLSASVGDRVTITCQASQDINKFLNWYQQKPGHAPKLLIYDALNLEAGVPSRFSGSASGTYFTFTITSLQPEDIATYYCQQYDNIPPTYGGGTKVDIKR
B1 gave a Kd [1] of 9.96 nM, a Kd [2] of 1.33 nM and a Kd [3] of 0.282 nM.
